Source: patent US20260265409A1, “ANTIBODY FUSION PROTEIN TARGETING FAP AND TGFbeta, AND USE THEREOF” (NANJING LEADS BIOLABS CO., LTD., priority 2022, published 2026)

Tests used:
[1] = Stability at 40° C., purity by SEC; type: physicochemical; conditions: for Purity by SEC, %: mutant antibody storage stability
Protocol: The purified antibodies were concentrated, and sterile filtration was performed. The purity of the antibodies was determined by size exclusion chromatography (SEC). Specifically, the samples were loaded at 20 μg onto a TSK G3000SWXL column using 100 mM sodium phosphate+100 mM Na2SO4 (pH 7.0) as a running buffer for 30 min. The collected effluent was measured using the Agilent 1220 HPLC system and the data were analyzed using OpenLAB software.
The huF19-LG antibody was tested for stability at 40° C. ELISA (see Example 1.2) and SEC (see Example 1.1) were conducted at 0 weeks (OW), 2 weeks (2W), or 4 weeks (4W) with the results shown as follows:
The activity and purity of the molecule were determined by SEC after storage. See Example 1.5 for the specific procedures.

murine FAP = target: T1, murine FAP (Mus musculus, UniProt P97321); experiment: Binding to murine FAP
T1 sequence (P97321 1-761): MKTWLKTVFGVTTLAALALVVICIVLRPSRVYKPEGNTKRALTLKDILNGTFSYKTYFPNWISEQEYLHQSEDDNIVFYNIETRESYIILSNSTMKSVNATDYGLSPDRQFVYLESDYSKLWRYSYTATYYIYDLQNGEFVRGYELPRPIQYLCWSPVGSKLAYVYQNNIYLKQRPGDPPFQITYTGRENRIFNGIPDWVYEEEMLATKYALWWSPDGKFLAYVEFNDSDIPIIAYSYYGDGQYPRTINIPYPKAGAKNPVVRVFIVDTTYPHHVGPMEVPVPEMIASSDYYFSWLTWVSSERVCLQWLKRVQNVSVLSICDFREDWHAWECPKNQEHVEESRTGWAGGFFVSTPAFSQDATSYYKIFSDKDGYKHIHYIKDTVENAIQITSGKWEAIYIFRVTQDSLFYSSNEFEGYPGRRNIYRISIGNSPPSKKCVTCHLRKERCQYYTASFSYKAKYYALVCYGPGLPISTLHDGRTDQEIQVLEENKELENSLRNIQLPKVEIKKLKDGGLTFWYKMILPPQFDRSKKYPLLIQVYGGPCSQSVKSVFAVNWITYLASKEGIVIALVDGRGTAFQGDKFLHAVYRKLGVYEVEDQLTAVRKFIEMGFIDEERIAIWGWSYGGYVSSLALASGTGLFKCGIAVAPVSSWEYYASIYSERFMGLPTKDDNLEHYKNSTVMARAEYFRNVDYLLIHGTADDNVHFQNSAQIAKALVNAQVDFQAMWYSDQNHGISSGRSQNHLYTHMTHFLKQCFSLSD

[2] = system: cynomolgus FAP protein expressed on 293T cells; experiment: Cell binding assay by flow cytometry, 293T-cynomolgus FAP cells
cynomolgus FAP protein expressed on 293T cells, sequence (as listed by the source): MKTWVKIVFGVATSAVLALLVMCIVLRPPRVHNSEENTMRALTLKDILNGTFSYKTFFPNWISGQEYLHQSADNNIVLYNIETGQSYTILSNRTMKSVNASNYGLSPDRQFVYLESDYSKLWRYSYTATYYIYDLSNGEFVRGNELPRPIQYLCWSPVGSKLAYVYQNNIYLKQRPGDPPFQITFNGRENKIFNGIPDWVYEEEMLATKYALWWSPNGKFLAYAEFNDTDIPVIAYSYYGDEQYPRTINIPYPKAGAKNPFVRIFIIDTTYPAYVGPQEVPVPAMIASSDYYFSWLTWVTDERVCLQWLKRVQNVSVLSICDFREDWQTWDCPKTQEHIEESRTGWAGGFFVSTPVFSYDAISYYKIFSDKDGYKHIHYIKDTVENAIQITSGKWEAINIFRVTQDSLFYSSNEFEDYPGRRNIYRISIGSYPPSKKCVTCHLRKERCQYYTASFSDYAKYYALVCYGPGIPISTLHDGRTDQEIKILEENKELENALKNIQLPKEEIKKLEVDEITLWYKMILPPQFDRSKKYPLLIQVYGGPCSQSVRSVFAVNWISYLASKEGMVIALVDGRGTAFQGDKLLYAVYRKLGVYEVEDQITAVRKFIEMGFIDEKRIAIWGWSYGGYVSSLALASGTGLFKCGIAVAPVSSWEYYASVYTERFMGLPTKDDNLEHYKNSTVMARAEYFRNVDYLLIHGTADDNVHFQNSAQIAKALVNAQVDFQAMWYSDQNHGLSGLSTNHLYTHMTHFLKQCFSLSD
Protocol: (§1) Whether the humanized antibody of the present disclosure can bind to human FAP protein stably expressed on the surface of 293T cells was determined by a cell binding assay. Firstly, the sequences encoding human FAP protein (NM_004460.2, SEQ ID NO: 31) and cynomolgus FAP (XM_005573320.2, SEQ ID NO: 32) were cloned into expression vector PIRES-puro3 (Clontech, Cat #631619) […]. The vectors were used to transfect 293T cells. […]
(§2) The human FAP antibodies (huF19-LG and sibrotuzumab) were 4-fold serially diluted from a starting concentration of 200 nM to a total of 8 concentrations and added to the cells for co-incubation at 4° C. for 30 min. […] The cells were washed twice with PBS and then resuspended, and finally, fluorescence signals were detected using the […] (BD Bioscience) flow cytometer.
Whether the mutant antibody in the present disclosure can bind to human or cynomolgus FAP protein stably expressed on the surface of 293T cells was determined by a cell binding assay. […] The cells were washed twice with PBS and then resuspended, and finally, fluorescence signals were detected using the […] (BD Bioscience) flow cytometer.

[3] = target: T2, human FAP protein expressed on 293T cells (Homo sapiens, UniProt Q12884); experiment: Cell binding assay by flow cytometry, 293T-human FAP cells
T2 construct: expressed in transfected cells; host or cells: 293T cells, PIRES-puro3 vector, puromycin selection
T2 sequence (Q12884 1-760): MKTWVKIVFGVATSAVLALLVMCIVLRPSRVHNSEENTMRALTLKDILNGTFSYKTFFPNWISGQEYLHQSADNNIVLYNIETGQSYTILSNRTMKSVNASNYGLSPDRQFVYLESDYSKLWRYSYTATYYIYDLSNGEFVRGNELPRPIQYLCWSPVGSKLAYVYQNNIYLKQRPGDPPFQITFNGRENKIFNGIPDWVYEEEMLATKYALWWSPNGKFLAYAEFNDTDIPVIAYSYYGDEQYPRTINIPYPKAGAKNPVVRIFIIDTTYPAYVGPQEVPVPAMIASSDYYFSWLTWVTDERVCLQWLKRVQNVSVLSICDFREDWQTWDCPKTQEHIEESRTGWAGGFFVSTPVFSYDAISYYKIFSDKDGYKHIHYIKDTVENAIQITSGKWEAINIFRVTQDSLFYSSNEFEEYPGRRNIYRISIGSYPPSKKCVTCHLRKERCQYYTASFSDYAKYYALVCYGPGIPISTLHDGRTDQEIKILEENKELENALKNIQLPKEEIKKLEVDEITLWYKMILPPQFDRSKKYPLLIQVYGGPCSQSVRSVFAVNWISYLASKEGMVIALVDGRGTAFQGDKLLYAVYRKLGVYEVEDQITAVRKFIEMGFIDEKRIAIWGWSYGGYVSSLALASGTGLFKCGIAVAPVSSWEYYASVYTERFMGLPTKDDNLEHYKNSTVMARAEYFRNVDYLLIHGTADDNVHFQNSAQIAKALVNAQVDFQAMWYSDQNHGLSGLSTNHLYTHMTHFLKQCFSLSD
Protocol: as §1, §2
Whether the mutant antibody in the present disclosure can bind to human or cynomolgus FAP protein stably expressed on the surface of 293T cells was determined by a cell binding assay. […] The cells were washed twice with PBS and then resuspended, and finally, fluorescence signals were detected using the […] (BD Bioscience) flow cytometer. […]

B1: huF19-LG-NGR: mutant of huF19-LG with G56R (Kabat) in heavy chain CDR2; VH SEQ ID NO: 21, VL SEQ ID NO: 15 (antibody, V domains shown)
VH: QVQLVQSGAEVKKPGASVKVSCKASGYTFTEYTIHWVRQATGQGLEWIGGINPNNRIPNYNQKFKGRATMTVGTSISTAYMELSSLRSEDTAVYFCARRRIAYGYDEGHAMDYWGQGTLVTVSS
VL: DIQMTQSPSSLSASVGDRVTITCKSSQSLLYSRNQKNYLAWFQQKPGKAPKLLIFWASTRESGVPSRFTGSGFGTDFTLTISSLQPEDFATYYCQQYFSYPLTFGQGTKLEIK
[1]; 0 to 4 weeks
  change in purity by SEC during storage: did not exhibit significant changes in purity
[1]; 0 weeks
  Purity by SEC, %: 99.2%
[1]; 2 weeks
  Purity by SEC, %: 99.1%
[1]; 4 weeks
  Purity by SEC, %: 99.1%
Murine FAP
  binding to murine protein: cannot bind to murine protein
[2]
  binding to cynomolgus FAP protein expressed on engineered 293T cells (FACS): can bind to human FAP protein and cynomolgus FAP protein expressed on engineered 293T cells, with the binding capacities comparable to those of the antibody before mutation
[3]
  binding to human FAP protein expressed on engineered 293T cells (FACS): can bind to human FAP protein and cynomolgus FAP protein expressed on engineered 293T cells, with the binding capacities comparable to those of the antibody before mutation
